Assay in all cases: purified protein
Substrate in data set [1]: COc1ccccc1O
Conditions: pH 4, 45 °C, error = 95% confidence limits.

Substrate in data set [2]: COc1cccc(OC)c1O
It is filed as biochemical, Irpex lacteus. Particulars: error = 95% confidence limits.

Substrate in data set [3]: Nc1c(N=Nc2ccc(S(=O)(=O)CCOS(=O)(=O)O)cc2)c(S(=O)(=O)O)cc2cc(S(=O)(=O)O)c(N=Nc3ccc(S(=O)(=O)CCOS(=O)(=O)O)cc3)c(O)c12
Type of data set: biochemical, Irpex lacteus. Particulars: error = 95% confidence limits.

Substrate in data set [4]: CCn1c(=NN=c2sc3cc(S(=O)(=O)O)ccc3n2CC)sc2cc(S(=O)(=O)O)ccc21
It is filed as biochemical, Irpex lacteus. Particulars: error = 95% confidence limits.

Substrate in data set [5]: Nc1c(S(=O)(=O)O)cc(Nc2cccc(S(=O)(=O)CCOS(=O)(=O)O)c2)c2c1C(=O)c1ccccc1C2=O
Type of data set: biochemical, Irpex lacteus. Conditions: error = 95% confidence limits.

Substrate in data set [6]: COc1ccc(CO)cc1OC
Type of data set: biochemical, Irpex lacteus. Particulars: 0.1 mM H2O2, 0.1 M sodium tartrate, pH 3.5, 45 °C, error = 95% confidence limits.

[7] abbreviates: 0.1 mM H2O2, 0.1 M sodium tartrate.
Setting [8] is: 0.1 mM H2O2, 0.1 M sodium tartrate, pH 4, 35 °C.
Where [9] appears, read: 0.1 mM H2O2, 0.1 M sodium tartrate, pH 3.5, 35 °C.
Where [10] appears, read: 0.1 mM H2O2, 0.1 M sodium tartrate, pH 4.5, 35 °C.
The mark [11] stands for this setting: 0.1 mM H2O2, 1 mM Mn2+, 0.1 M sodium tartrate.
[12] abbreviates: 0.1 mM H2O2, 1 mM Mn2+, 0.1 M sodium tartrate, pH 4.5, 55 °C.
[13] abbreviates: 0.1 mM H2O2, 1 mM Mn2+, 0.1 M sodium tartrate, pH 3, 35 °C.
The mark [14] stands for this setting: 0.1 mM H2O2, 1 mM Mn2+, 0.1 M sodium tartrate, pH 3.5, 45 °C.

B1: Il-DyP4 (Irpex lacteus) (protein)
chain: SAGNDSLPFENIQGDILVGMKKDKEKFVFFHINNATAFKSVLKTYAPANITSVATIIGPVANQPLAFVNLAFSHAGFGALNVTDDLQDTAFSDGQFKDSPNLGDDTSTWEEAFKGTNVDGVFLIGSNDESITAQYRDDLNAKFGDAWTIVYDLDSAARPGNEKGHEHFGYLDGISNPTIPGFGTPHPGQAVVDPGIIFTGRSKDPVMNRPSWALDGSFLVFRKLKQLVPEFNKYVLDNALQNQAGNLTVEEGAELLGSRMFGRWKSGAPIDLSPDFDDPALGNDIERNNNFNYSHPGSDLATDQTRCPFTAHIRKTNPRDLEGQGLFGDTFHAIRAGTPYGPEVTDYEASSNTTTIDRGLAFVEYQSVIGNGFRFQQQAWANNPRFPFSKGPSIQLGLDPVIGQGSPRETFGLDPRNASESFTVPQVIISNGGEYFFSPSITAIVEKFAA
notes: 502 aa given, 52-aa signal peptide stated
For B1, the Km in the data set “purified protein [1]” (setting [7]) is 24 ± 7.5 µM; in “purified protein [2]” (setting [8]) it was 58 ± 3 µM; in “purified protein [3]” (setting [8]), 159 ± 61 µM; in the data set “purified protein [4]” (setting [9]), 62 ± 11 µM; in the data set “purified protein [5]” (setting [10]), 133 ± 34 µM; in “purified protein [6]”, “(2.1 ± 0.98) × 10^4 μM”. For the same protein, the kcat was 413 ± 34 s⁻¹ in the data set “purified protein [1]” (setting [7]); 4896 ± 131 s⁻¹ in “purified protein [2]” (setting [8]); 267 ± 96 s⁻¹ in “purified protein [3]” (setting [8]); 8356 ± 747 s⁻¹ in the data set “purified protein [4]” (setting [9]); 5345 ± 921 s⁻¹ in the data set “purified protein [5]” (setting [10]); 108 ± 47 s⁻¹ in “purified protein [6]”. In addition, the kcat/Km entry is reported as “(1.7 ± 0.1) × 10^7 s^-1M^-1” in the data set “purified protein [1]” (setting [7]); “(8.4 ± 0.2) × 10^7 s^-1M^-1” in “purified protein [2]” (setting [8]); “(1.7 ± 0.6) × 10^6 s^-1M^-1” in “purified protein [3]” (setting [8]); “(1.3 ± 0.1) × 10^8 s^-1M^-1” in “purified protein [4]” (setting [9]); “(4.0 ± 0.7) × 10^7 s^-1M^-1” in “purified protein [5]” (setting [10]); “(5.2 ± 2.3) × 10^3 s^-1M^-1” in the data set “purified protein [6]”.

B2: Il-MnP6 (Irpex lacteus) (protein)
chain: TKRVACPDGKNTATNAACCALFAIRDDIQENLFDGGQCGEEVHESFRLTFHDAIGIGSNGGGGADGSIAVFEAIETAFHANNGVDEIIDEQKPFIARHNITPGDFIQFAGAVGVSNCPGAPRLDFFLGRPNPVAPAPDKTVPEPFDSVTSILARFKDAGNFSPEEVVALLGSHTIAAADHVDPTIPGTPFDSTPEVFDTQVFLEVQLRGTLFPGTAGNQGEVQSPLRGEIRLQSDHDLARDQRTACEWQSFVNNQAKLQRNFKAAFKKLSILGHDERRLIDCSEVIPEPPNVKVKPATFPAGLSNKDVEQACRATPFPTLPTDPGPSTSVAPVPPS
notes: 359 aa printed, predicted 23-aa signal peptide; short-type MnP
As to B2, the Michaelis constant (Km) in the data set “purified protein [1]” (setting [11]) was determined as 2.6 ± 0.6 µM; in the data set “purified protein [2]” (setting [12]), 53 ± 8.6 µM; in “purified protein [3]” (setting [13]) it was 4.4 ± 0.7 µM; in the data set “purified protein [4]” (setting [14]), 83 ± 6.5 µM; in the data set “purified protein [5]” (setting [13]), 81 ± 39.5 µM. The turnover number (kcat) amounted to 184 ± 7 s⁻¹ in the data set “purified protein [1]” (setting [11]); 989 ± 100 s⁻¹ in “purified protein [2]” (setting [12]); 0.06 ± 0.003 s⁻¹ in the data set “purified protein [3]” (setting [13]); 245 ± 7 s⁻¹ in the data set “purified protein [4]” (setting [14]); 7.3 ± 2.6 s⁻¹ in the data set “purified protein [5]” (setting [13]). Besides, the kcat/Km entry is recorded as “(7.1 ± 0.3) × 10^7 s^-1M^-1” in the data set “purified protein [1]” (setting [11]); “(1.9 ± 0.2) × 10^7 s^-1M^-1” in the data set “purified protein [2]” (setting [12]); “(1.5 ± 0.07) × 10^4 s^-1M^-1” in the data set “purified protein [3]” (setting [13]); “(3.0 ± 0.09) × 10^6 s^-1M^-1” in the data set “purified protein [4]” (setting [14]); “(9.0 ± 3.2) × 10^4 s^-1M^-1” in “purified protein [5]” (setting [13]).

Usually Km stands for the concentration of substrate that gives half-maximal velocity. Broadly, the kcat is the maximal rate divided by the concentration of active sites.
